Results from article PMC4726326, “The Arabidopsis glutamyl-tRNA reductase (GluTR) forms a ternary complex with FLU and GluTR-binding protein” (Scientific Reports, 2016).

B1: Arabidopsis glutamyl-tRNA reductase (GluTR), residues 73-543 (enzyme, Arabidopsis thaliana, UniProt P42804 73-543, looked up)
chain: AASISALEQLKNSAADRYTKERSSIVVIGLSIHTAPVEMREKLAIPEAEWPRAIAELCGLNHIEEAAVLSTCNRMEIYVLALSQHRGVKEVTEWMSKTSGIPVSEICQHRFLLYNKDATQHIFEVSAGLDSLVLGEGQILAQVKQVVKVGQGVNGFGRNISGLFKHAITVGKRVRTETNIASGAVSVSSAAVELALMKLPQSSNVSARMCVIGAGKMGKLVIKHLMAKGCTKVVVVNRSEERVSAIREEMPGIEIIYRPLDEMLACASEADVVFTSTASETPLFLKEHVENLPQASPEVGGLRHFVDISVPRNVGSCVGEVETARVYNVDDLKEVVAANKEDRMRKAMEAQTIITEESTQFEAWRDSLETVPTIKKLRAYAERIRVAELEKCMSKMGDDINKKTTRAVDDLSRGIVNRFLHGPMQHLRCDGSDSRTLSETLENMHALNRMYGLEKDILEEKLKAMAEQQQK
notes: Expression vector pMAL-c5X; GluTR dimer fractions were collected from the gel filtration
B2: Arabidopsis GluTR-binding protein (GBP), residues 42-317 (natural protein, Arabidopsis thaliana, UniProt Q9LU39 42-317, looked up)
chain: CSVSTTLDTPATASTHKPFPAEVSRSIMELSSVGTLSTLTHDGWPLGVGVRFAVDKDGTPVLCLNRSVSPDKRSALHVQLEQCGLRTPQCTIQGSIGRPGDDTVLKRLSATWREKFGEEVKEDSLYVVAVDRVLQMEDFMEDGIWVASSDYKNASPDPLRDIAEDIVNQINANNMEDIFRFCNVYVDLDFVVSETKMIWMDRLGFDLRVWSPRGVYDVRIPFPMEVTDEKGAKSSFNGMSQLAWEVEKSYCPADFNKVKLLKQVVGSSHSHKGGGQ
notes: Expression vector pET-28a(+)
B3: C-terminal tetratricopeptide-repeat domain of Arabidopsis FLUORESCENT (FLU), residues 195-316 (domain or fragment, Arabidopsis thaliana, UniProt Q940U6 195-316, looked up)
chain: IVEPKKQELISKLKTGKTFLRNQEPEKAYTEFKIALELAQSLKDPTEEKKAARGLGASLQRQGKYREAIQYHSMVLAISKRESEDSGITEAYGAIADCYTELGDLEKAGKFYDTYIARLETD
notes: FLUORESCENT (FLU), Arabidopsis thaliana, At3g14110, truncation of residues 195-316 (TPR domain); Expression vector pET-22b(+); also called FLU^TPR; the recombinant TPR domain of FLU

Tests used:
[1] = target: the molecule itself; experiment: crystal structure; FLU^TPR-GluTR-GBP ternary complex, space group C2, 3.2 Å, PDB 5CHE; sitting drop, 16 °C
[2] = target: B1; experiment: ITC; MicroCal iTC200, 25 °C; 20 mM Tris-HCl pH 7.5, 150 mM NaCl; 20 injections of 2 μl of 0.5 mM protein into 200 μl of 50 μM protein; one-site binding model; apparent Kd; conditions: both partners purified
[3] = target: B1; experiment: SEC; purified GluTR, GBP and FLU^TPR mixed at molar ratio 2:3:3, 1 hour at 4 °C; HiLoad 16/60 Superdex 200 pg; 20 mM Tris-HCl pH 7.5, 200 mM NaCl, 4 mM dithiothreitol; conditions: both partners purified

Kd [2] [nM]	Binder	stoichiometry N [1]	binding result [1]	binding result [3]
–	B1	2	–	–
41.3 ± 3.7	B2	–	binds	–
–	B3	–	binds	binds
